B1: VTGAVGVGK polypeptide (KRAS; SEQ ID NO: 3) (peptide)
peptide: VTGAVGVGK
notes: Synthesized mutant KRAS neoantigen peptide, printed as a 9-mer; also called core polypeptide
B2: VTVGAVGVGK polypeptide (KRAS; SEQ ID NO: 4) (peptide)
peptide: VTVGAVGVGK
notes: Synthesized mutant KRAS neoantigen peptide; also called core polypeptide
B3: VSVGAVGVGK polypeptide (KRAS; SEQ ID NO: 6) (peptide)
peptide: VSVGAVGVGK
notes: as for B2
B4: VTVGADGVGK polypeptide (KRAS; SEQ ID NO: 1) (peptide)
peptide: VTVGADGVGK
notes: as for B2
B5: VTVGAAGVGK polypeptide (KRAS; SEQ ID NO: 5) (peptide)
peptide: VTVGAAGVGK
notes: as for B2

Molecular target: T1, HLA-A*11:01 (MHC-I molecules on the surfaces of T2 cells) (human)
T1 construct: It only names the antibody against 'the corresponding HLA typing (HLA-A*11:01)'; also called HLA molecules
Assay: T2 cell MHC-I stabilisation assay, flow cytometry with FITC anti-HLA-A*11:01 antibody

Binder	FI (fluorescence index)
B1	2.37
B2	2.02
B3	2.42
B4	2.83
B5	2.12

From patent publication US20220378887A1 (GENOIMMUNE THERAPEUTICS, published 2022)
